Reference: doi:10.1101/359695

What was measured:
[1] = biological target: reconstituted 26S proteasome with Cy3-labeled base (Rpt1-I191AzF-Cy3) (S. cerevisiae) (UniProt P33299); assay: FRET or BRET
[2] = biological target: reconstituted 26S proteasome (S. cerevisiae), all wild-type components (S. cerevisiae) (UniProt P33299)

| FRET amplitude of tail insertion, percent of that of the 35-residue tail [1] | Substance | other results |
| --- | --- | --- |
| 25% | ubiquitinated titin-I27^V15P-11 (11 AA tail), acceptor-labeled (from UniProt P0CG63 1-76) | – |
| – | ubiquitinated titin-I27^V15P-35 modified with Cy5 on its unstructured tail (from UniProt P0CG63 1-76) | time constant of tail insertion (FRET change) [1]: 1.6 s |
| – | ubiquitinated 5-FAM-titin-I27^V15P-35 (from UniProt P0CG63 1-76) | KM of multiple-turnover degradation (Michaelis-Menten, anisotropy of 5-FAM) [2]: 0.22 µM |
| 16% | ubiquitinated titin-I27^V15P-1 (1 AA tail), acceptor-labeled (from UniProt P0CG63 1-76) | – |
